Target: T1, MPER peptide (wild type, for epitope mapping) (HIV-1 HXB2)
T1 construct: also called wild-type MPER (WT); source: synthetic peptide
T1 chain: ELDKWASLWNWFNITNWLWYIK
Assay: SPR
Conditions: both partners purified

B1: rmAb 235 IgG1 (antibody, V domains shown)
VH: QVQLQQSGTDLVRPGTSVKVSCKASGYAFTTYFIEWVKQRPGQGLEWIGVINPGSGIPNYNEMFKGKATLTADKSSSTAYLHLSSLTSDDSAVYFCARAPYYYGSSYYYFDVWGAGTTVTVSS
VL: DIVMSQSPSSLAVSVGEKVTMSCKSSQSLLYSSNQKNYLAWYQQKPGQSPKLLIYWASTRDSGVPDRFTGSGSGTDFTLTISSVKAEDLAVYCCQQYYNYPFTFGAGTKLEIK
B1: binds.

B2: rmAb 460 IgG1 (antibody, V domains shown)
VH: EVQLQQSGAELVKPGASVKLSCTASGFNIKDTYMHWVKQRPEQGLEWIGRIDPANGNTKYDPKFQGKATITADTSSNTAYLQLSSLTSEDTAVYFCTRSRGYFGNYYFDYWGQGTTLTVSS
VL: QIVLTQSPAVMSASPGERVTMTCSASSSVSYMYWYQQKPRSSPKPWIYLTSNLASGVPARFSGSGSGTSYSLTISSMEAEDAATYYCQQWSSIPLTFGAGTKLELK
B2: binds.
